106 substances from the supplement of paper PMC12042874 can be followed below.

± gives the uncertainty stated by the source.

A short description of this data set: amyloid nucleation score (Sup35N fusion, yeast selection) (log enrichment); library NNK1; higher = more nucleation; inactive = no reads after selection. Summed up:
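The nucleation score is a DiMSum log enrichment of output over input reads, centred on the mode score of non-aggregating sequences. Sequences under 100 input reads were excluded, and reads came from Illumina sequencing of plasmid inserts. Psi-negative yeast expressing Sup35N fused to peptides of 20 random codons were induced with 100 μM copper sulfate for 24 hours and grown 7 days at 30°C on medium lacking adenine and uracil. Random libraries had three technical output replicates.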
As for IENGLYMSLYLGNQRI, the amyloid nucleation score was 1.47 ± 0.29. NSHLVFMGMLFLRISDDFVR: the amyloid nucleation score is -0.083 ± 1.4. The value for SLWVWRNAWLVHLYRL was -0.206 ± 0.54.

For APQFTKGFSEFGDLGAMRRA, the amyloid nucleation score was determined as 0.196 ± 0.67. The value for MFSSVLIWKY was 1.12 ± 0.56; that for IKLFLRNIV was -0.252 ± 0.59; that for RDSGLVGIPLTRTRIVKLST was -0.35 ± 0.56. The same measure for EDNWHLRVQ: 0.088 ± 0.29; for VFHVAKSRRVTHPSILISL: 1.53 ± 0.74; for DSVNRLLSCPINKMLWSNYS: 0.233 ± 0.22. NSVIWRMG: the amyloid nucleation score stood at 1.42 ± 0.3.

For QYRRVSILSSVLLYCPNYCQ, the amyloid nucleation score was -1.38 ± 2.7. The substance VSPMWVGYSRTSKLW yielded an amyloid nucleation score of 0.036 ± 0.26. Substance MTPEAL registered an amyloid nucleation score of -0.063 ± 0.43. The same measure for IRSYHLVFVGM: 5.13 ± 0.1; for SCNSIGTCTLFKLHSLLS: 0.701 ± 0.51. Substance DDRTKLQLSMRWEQQIMRHR had an amyloid nucleation score of 3.48 ± 0.12.

PAVCLCNGRMDVSKNLWLCF displayed an amyloid nucleation score of 7.445 ± 0.061. The value for LNVTQYVKGSEWKWGSTTSP was 0.176 ± 0.52; that for LFMGVRTKVNGSAVI was 0.183 ± 0.17. With EIVACSWKKELIRAW, the amyloid nucleation score is -0.209 ± 0.38. In turn, YTTDREFLPICKDAATRDFL came in with an amyloid nucleation score of -0.057 ± 1.1. For FVHVYLERDRPNLTPFI, the amyloid nucleation score turned out to be 0.084 ± 0.33.

For WMTTEIRRAIIEIRSVLWTS, the amyloid nucleation score came out at 0.33 ± 0.55. The value for LTARSFKCF was “inactive”. LPGMVSL gave an amyloid nucleation score of 0.33 ± 0.42. The same measure for LGASGLGCIF: 4.56 ± 0.055; for GLYIFYLSNWLFHPRF: 0.339 ± 0.43.

YAFIG yielded an amyloid nucleation score of -1.07 ± 1.5. The same measure for KRSRYSKR: 0.103 ± 0.48; for QGLAGHLSRRYFY: -1.96 ± 2.1; for RMAKYNFVIISVTDDVRQKC: 2.42 ± 0.14. The value for RLLDFMFVGVLLACFGVQRW was 1.39 ± 0.29. The value for TYRNHYCKDKAL was 0.175 ± 0.75; that for VDRFEVLTYLKE was -0.175 ± 1.

As for VTSWQIDKLPWASANSLFWL, the amyloid nucleation score was found to be 0.334 ± 0.27. The same measure for NYEQYLGCSNTEERSSSCTL: -0.286 ± 1.2. The same measure for MVLRHRKCLSAFPWAFHAPY: 1.49 ± 0.85. The same measure for NYNVTNNALADR: -0.368 ± 1.7; for YARWVGVSKVRNTQICNSMR: -0.543 ± 0.79; for LLGAR: 0.272 ± 0.79. Regarding HQELMSFFLLCLH, the amyloid nucleation score entry was “inactive”. For VLLRKVKRLNRYHMSTGGL, the amyloid nucleation score result is “inactive”. The same measure for LWLRCLSIAAGIHQ: 2.31 ± 0.12; for MYWESSSHEHVSEKPVRLIL: 1.07 ± 0.84.

Substance VGLGYYNSSK displayed an amyloid nucleation score of 0.91 ± 0.51. Turning to WNSSFLHRLWEGSNLSARCC, the amyloid nucleation score entry was “inactive”. The same measure for PSMARPAARTHVDNNRWR: -0.051 ± 0.56; for DNAYPHPCSIYYNNNQFLRF: 6.734 ± 0.054. The value for EFYYMKLRYRVRRKF was -0.716 ± 0.45. As to FGNRDFSQSDYNSCVFATGS, the amyloid nucleation score was found to be 2.2 ± 0.44. The same measure for GYIDFCFLWD: -0.333 ± 0.21; for IGSFGNRYRVPMRTASGYNM: 0.623 ± 1. VDLILRRFEMRSDSLFGLWE: the amyloid nucleation score was -0.481 ± 0.58. With FSDVQCG, the amyloid nucleation score entry is “inactive”.

For the substance WTSSVFSIAHPVRYVRFYAV, the amyloid nucleation score is 0.307 ± 0.54. The value for DIAHC was -0.464 ± 0.59; that for SCMTLLRFKRMEDLK was 2.45 ± 0.19; that for QRGAVVQDLAM was 0.728 ± 0.71. For the substance YILGVRSSYSMFMESQCL, the amyloid nucleation score came to 0.543 ± 0.23. The value for FMLSFDTTFPLKVLIRTSPE was -0.858 ± 0.85. The same measure for RSTISGWR: “inactive”; for MGLFFERSVKCSLF: -0.946 ± 1.1.

Take MCLAMSIFDKTENK: the amyloid nucleation score is -0.731 ± 0.73. VVVSLK displayed an amyloid nucleation score of -0.916 ± 0.86.

GVVACLFFWVRAFFYR: the amyloid nucleation score entry was “inactive”. In the case of FTCMCH, the amyloid nucleation score entry was “inactive”. The substance ILGKFFIDLSDI showed an amyloid nucleation score of -1.16 ± 0.43. The value for VFGVPVTCGGRPVFLIKVVG was -0.794 ± 1.4; that for GGLCTLVVAVGDSWIDRR was -0.34 ± 0.43. For QYSVHINNVTLRPKHRYVQ, the amyloid nucleation score is -0.065 ± 0.29. The substance YTTIYLVIFSFC returned an amyloid nucleation score of 6.48 ± 0.068.

IDKSVGLVHKTHYWFQPWYK gave an amyloid nucleation score of 0.445 ± 0.43. Substance KYRSCGNGIPLIISHLLVER gave an amyloid nucleation score of 0.317 ± 0.26. The same measure for EYAVIGKS: -0.186 ± 1; for QTDLLYSIYRSKDNSGLNLV: 0.75 ± 0.56. The value for PHGKRPGHFLKVLLAFSWRW was 0.038 ± 0.56; that for GSVCRCSDAPVSFRVGNSVG was -0.078 ± 0.27. The value for NIVNYFSCLKALNKFLHKMG was 0.609 ± 0.26; that for LRSTLPADRRGLICFSHI was 0.528 ± 1; that for THWLNRTGCVRTHPVQSGKE was -1.09 ± 1. For the substance RLSNYFNLECEQIRSYYRYM, the amyloid nucleation score turned out to be 1.85 ± 0.11. LRNIGCKY returned an amyloid nucleation score of 1.01 ± 0.64. The same measure for CANFVFCCMGE: 7.396 ± 0.072; for ALNYSRGMTMVGVCLPHKLT: -0.147 ± 0.3.

The substance SSWQGLRNLHGSYEDQINVK had an amyloid nucleation score of 4.17 ± 0.073. The same measure for MVGVLVKVREKAVMGPGQFG: 0.804 ± 0.29. The value for TTCGCKMHVSAHR was 0.425 ± 1.1; that for SCPKVITNVLSSKTYPRMVG was 1.11 ± 0.34; that for TSSFFTDIDFNG was -0.363 ± 0.7. The same measure for GEFVWKEASATCCSWGKLRR: 0.425 ± 0.72; for CVCLRGDKGPLSRLRLRSSS: 0.254 ± 1. SEEGGNTASNRVDWYTTGIV showed an amyloid nucleation score of 0.95 ± 0.48. The value for IEGMCGDMVMTYYIFLDSCG was 1.07 ± 0.36; that for INVFREAYIIYCRCEGSGGD was 7.507 ± 0.059; that for SRLMV was 0.547 ± 0.71. The same measure for IMKLYPLRQSG: 0.453 ± 1.2. The same measure for TSAVQIVTLQLVLSWMRYHM: 1.02 ± 0.28; for CNLYFSYNCVFT: -0.592 ± 0.24; for RACLQFRQLVGDRLG: 1.52 ± 0.73.

VQIWAAELMTDRRK: the amyloid nucleation score came out at 0.436 ± 1.2. The same measure for FMDKVFSIP: -0.101 ± 0.78; for HFCFGC: 7.377 ± 0.062. The value for DSMSRREQG was -0.437 ± 0.73. In turn, FTSLYSNILHKSTCLQ returned an amyloid nucleation score of 0.288 ± 0.9.

As for ELRSIDTWYPASGCML, the amyloid nucleation score is -0.187 ± 0.29.
